Data: publication PMC11865173, “Improving the hydrophilic microenvironment surrounding the catalytic site of fructosyltransferase enhances its catalytic ability” (Biotechnology Letters, 2025)

Tests used:
[1] = system: T1, OC[C@H]1O[C@@](CO)(O[C@H]2O[C@H](CO)[C@@H](O)[C@H](O)[C@H]2O)[C@@H](O)[C@@H]1O; assay: glucose release measured by biosensor, Michaelis-Menten nonlinear fit; assay type: biochemical, Aspergillus niger; settings: 50 °C, pH 5.5, 5 min, transfructosylation
T1 construct: codon-optimised synthetic gene downstream of alpha-factor in pPIC9K, secreted from Pichia pastoris GS115; purified by size exclusion chromatography; model covers residues 25-628; no tag mentioned
Description: (§1) glucose release measured by biosensor, Michaelis-Menten nonlinear fit on SucC

[2] = substrate: OC[C@H]1O[C@@](CO)(O[C@H]2O[C@H](CO)[C@@H](O)[C@H](O)[C@H]2O)[C@@H](O)[C@@H]1O; assay: as above; assay type: biochemical, Aspergillus niger; settings: 50 °C, pH 5.5, 5 min, transfructosylation
Description: as §1

Row | Molecule | Km [1] | kcat [1] | kcat/Km [1] | Km [2] | kcat [2] | kcat/Km [2]
1 | SucC (Aspergillus niger; C66S) | 71.14 mM | 2.27 s⁻¹ | 32 M⁻¹ s⁻¹ | – | – | –
2 | SucC (Aspergillus niger) (protein, codon-optimised synthetic gene downstream of alpha-factor in pPIC9K, secreted from Pichia pastoris GS115; purified by size exclusion chromatography; model covers residues 25-628; no tag mentioned) MQTRASVVIDYNVAPPNLSTLPNGSLFETWRPRAHVLPPNGQIGDPCLHYTDPSTGLFHVGFLHDGSGISSATTDDLATYKDLNQGNQVIVPGGINDPVAVFDGSVIPSGINGLPTLLYTSVSFLPIHWSIPYTRGSETQSLAVSSDGGSNFTKLDQGPVIPGPPFAYNVTAFRDPYVFQNPTLDSLLHSKNNTWYTVISGGLHGKGPAQFLYRQYDPDFQYWEFLGQWWHEPTNSTWGNGTWAGRWAFNFETGNVFSLDEYGYNPHGQIFSTIGTEGSDQPVVPQLTSIHDMLWVSGNVSRNGSVSFTPNMAGFLDWGFSSYAAAGKVLPSTSLPSTKSGAPDRFISYVWLSGDLFEQAEGFPTNQQNWTGTLLLPRELRVLYIPNVVDNALARESGASWQVVSSDSSAGTVELQTLGISIARETKAALLSGTSFTESDRTLNSSGVVPFKRSPSEKFFVLSAQLSFPASARGSGLKSGFQILSSELESTTVYYQFSNESIIVDRSNTSAAARTTDGIDSSAEAGKLRLFDVLNGGEQAIETLDLTLVVDNSVLEIYANGRFALSTWVRSWYANSTNISFFQNGVGGVAFSNVTVSEGLYDAWPDRQS | – | – | – | 82.20 mM | 1.87 s⁻¹ | 22.8 M⁻¹ s⁻¹
